From paper PMC10786891, “Massively parallel profiling of RNA-targeting CRISPR-Cas13d”

T1: EsCas13d, nuclease-dead (Eubacterium siraeum, UniProt B0MS50, R295A;H300A;R849A;H854A)
T1 sequence: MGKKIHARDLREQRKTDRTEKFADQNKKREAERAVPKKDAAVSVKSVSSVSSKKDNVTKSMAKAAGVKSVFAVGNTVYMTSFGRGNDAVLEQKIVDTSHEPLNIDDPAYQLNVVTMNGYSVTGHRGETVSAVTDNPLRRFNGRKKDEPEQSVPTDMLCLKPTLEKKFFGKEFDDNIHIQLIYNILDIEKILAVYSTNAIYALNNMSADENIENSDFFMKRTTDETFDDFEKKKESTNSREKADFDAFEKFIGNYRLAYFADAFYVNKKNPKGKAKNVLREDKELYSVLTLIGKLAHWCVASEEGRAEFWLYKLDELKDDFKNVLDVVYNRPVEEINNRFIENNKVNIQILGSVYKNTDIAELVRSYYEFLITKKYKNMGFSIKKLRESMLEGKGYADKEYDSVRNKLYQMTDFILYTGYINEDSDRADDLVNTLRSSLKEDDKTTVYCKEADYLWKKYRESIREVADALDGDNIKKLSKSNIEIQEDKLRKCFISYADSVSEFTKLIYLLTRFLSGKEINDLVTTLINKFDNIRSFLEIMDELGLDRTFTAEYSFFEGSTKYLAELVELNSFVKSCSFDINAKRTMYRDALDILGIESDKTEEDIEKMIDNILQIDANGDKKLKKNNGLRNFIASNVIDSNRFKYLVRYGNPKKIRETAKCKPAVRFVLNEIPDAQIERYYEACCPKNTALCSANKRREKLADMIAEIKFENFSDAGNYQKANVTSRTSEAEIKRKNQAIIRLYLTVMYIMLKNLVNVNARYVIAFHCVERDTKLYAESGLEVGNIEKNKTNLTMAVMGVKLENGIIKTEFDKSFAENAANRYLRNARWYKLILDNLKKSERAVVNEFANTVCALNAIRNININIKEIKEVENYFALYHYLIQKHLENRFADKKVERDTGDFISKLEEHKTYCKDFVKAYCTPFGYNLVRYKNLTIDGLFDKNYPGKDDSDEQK


What follows are binders tested against T1, EsCas13d, nuclease-dead (assay: crRNA (strand 1, pre-loaded); Mg2+; 40 mM Tris-HCl pH 7.5, 150 mM NaCl, 6 mM MgCl2, 1 mM DTT, 0.1% Tween-20, 0.2 mg/ml BSA; 25 C; 10 min per concentration, then washed). Details: tags: His6-TwinStrep-SUMO cleaved; N-terminal SNAP kept (SNAP-Surface 488); label: 3' end held by stalled T7 RNA polymerase.

Binder	Kd [nM]
target 1 insG 3' of 8,insG 3' of 8 (mixed) RNA 1: CACCCGUGCAAAAAUGCAGGGGUCUAAAACUGAGCGGAUAACCUCUCUAUGG RNA 2: GGGAAUGGAUCCACAUCUACGAAUUCGUACCAUAGAGAGGUUAUGGCCGCUCACCGAGAUCGGAAGAGCACACGU	45.3 ± 3.2
target 1 insA 3' of 7,insG 3' of 7 (mixed) RNA 1: CACCCGUGCAAAAAUGCAGGGGUCUAAAACUGAGCGGAUAACCUCUCUAUGG RNA 2: GGGAAUGGAUCCACAUCUACGAAUUCGUACCAUAGAGAGGUUAUCAGCGCUCACCGAGAUCGGAAGAGCACACGU	13 ± 0.9
target 1 G12A,C22U (mixed) RNA 1: CACCCGUGCAAAAAUGCAGGGGUCUAAAACUGAGCGGAUAACCUCUCUAUGG RNA 2: GGGAAUGGAUCCACAUCUACGAAUUCGUAUCAUAGAGAGAUUAUCCGCUCACCGAGAUCGGAAGAGCACACGU	13 ± 1.1
target 1 G12A,G15C (mixed) RNA 1: CACCCGUGCAAAAAUGCAGGGGUCUAAAACUGAGCGGAUAACCUCUCUAUGG RNA 2: GGGAAUGGAUCCACAUCUACGAAUUCGUACCAUAGACAGAUUAUCCGCUCACCGAGAUCGGAAGAGCACACGU	57 ± 15
target 1 C4A,C6U (mixed) RNA 1: CACCCGUGCAAAAAUGCAGGGGUCUAAAACUGAGCGGAUAACCUCUCUAUGG RNA 2: GGGAAUGGAUCCACAUCUACGAAUUCGUACCAUAGAGAGGUUAUCUGAUCACCGAGAUCGGAAGAGCACACGU	4.16 ± 0.27
target 1 C7G,U19A (mixed) RNA 1: CACCCGUGCAAAAAUGCAGGGGUCUAAAACUGAGCGGAUAACCUCUCUAUGG RNA 2: GGGAAUGGAUCCACAUCUACGAAUUCGUACCAAAGAGAGGUUAUGCGCUCACCGAGAUCGGAAGAGCACACGU	56 ± 9
target 1 insA 3' of 15,insG 3' of 9 (mixed) RNA 1: CACCCGUGCAAAAAUGCAGGGGUCUAAAACUGAGCGGAUAACCUCUCUAUGG RNA 2: GGGAAUGGAUCCACAUCUACGAAUUCGUACCAUAGAGAAGGUUAGUCCGCUCACCGAGAUCGGAAGAGCACACGU	8.7 ± 0.7
target 1 insU 3' of 21,insG 3' of 21 (mixed) RNA 1: CACCCGUGCAAAAAUGCAGGGGUCUAAAACUGAGCGGAUAACCUCUCUAUGG RNA 2: GGGAAUGGAUCCACAUCUACGAAUUCGUACCUGAUAGAGAGGUUAUCCGCUCACCGAGAUCGGAAGAGCACACGU	54 ± 6
target 1 insC 3' of 15,insA 3' of 4 (mixed) RNA 1: CACCCGUGCAAAAAUGCAGGGGUCUAAAACUGAGCGGAUAACCUCUCUAUGG RNA 2: GGGAAUGGAUCCACAUCUACGAAUUCGUACCAUAGAGCAGGUUAUCCGCAUCACCGAGAUCGGAAGAGCACACGU	6.5 ± 0.5
target 1 insA 3' of 12,insC 3' of 9 (mixed) RNA 1: CACCCGUGCAAAAAUGCAGGGGUCUAAAACUGAGCGGAUAACCUCUCUAUGG RNA 2: GGGAAUGGAUCCACAUCUACGAAUUCGUACCAUAGAGAGGAUUACUCCGCUCACCGAGAUCGGAAGAGCACACGU	40 ± 5
target 1 insG 3' of 16 (mixed) RNA 1: CACCCGUGCAAAAAUGCAGGGGUCUAAAACUGAGCGGAUAACCUCUCUAUGG RNA 2: GGGAAUGGAUCCACAUCUACGAAUUCGUACCAUAGAGGAGGUUAUCCGCUCACCGAGAUCGGAAGAGCACACGU	12.1 ± 1.1
target 1 insA 3' of 10,insU 3' of 1 (mixed) RNA 1: CACCCGUGCAAAAAUGCAGGGGUCUAAAACUGAGCGGAUAACCUCUCUAUGG RNA 2: GGGAAUGGAUCCACAUCUACGAAUUCGUACCAUAGAGAGGUUAAUCCGCUCAUCCGAGAUCGGAAGAGCACACGU	13.9 ± 0.8
target 1 complement block 2-9 (mixed) RNA 1: CACCCGUGCAAAAAUGCAGGGGUCUAAAACUGAGCGGAUAACCUCUCUAUGG RNA 2: GGGAAUGGAUCCACAUCUACGAAUUCGUACCAUAGAGAGGUUUAGGCGAGACCGAGAUCGGAAGAGCACACGU	7.29 ± 0.23
target 1 insU 3' of 12,insG 3' of 8 (mixed) RNA 1: CACCCGUGCAAAAAUGCAGGGGUCUAAAACUGAGCGGAUAACCUCUCUAUGG RNA 2: GGGAAUGGAUCCACAUCUACGAAUUCGUACCAUAGAGAGGUUUAUGCCGCUCACCGAGAUCGGAAGAGCACACGU	9.41 ± 0.34
target 1 insG 3' of 9,insG 3' of 2 (mixed) RNA 1: CACCCGUGCAAAAAUGCAGGGGUCUAAAACUGAGCGGAUAACCUCUCUAUGG RNA 2: GGGAAUGGAUCCACAUCUACGAAUUCGUACCAUAGAGAGGUUAGUCCGCUCGACCGAGAUCGGAAGAGCACACGU	17.2 ± 1
target 1 C6A,U19C (mixed) RNA 1: CACCCGUGCAAAAAUGCAGGGGUCUAAAACUGAGCGGAUAACCUCUCUAUGG RNA 2: GGGAAUGGAUCCACAUCUACGAAUUCGUACCACAGAGAGGUUAUCAGCUCACCGAGAUCGGAAGAGCACACGU	21.3 ± 1.9
target 1 insU 3' of 15,insG 3' of 9 (mixed) RNA 1: CACCCGUGCAAAAAUGCAGGGGUCUAAAACUGAGCGGAUAACCUCUCUAUGG RNA 2: GGGAAUGGAUCCACAUCUACGAAUUCGUACCAUAGAGUAGGUUAGUCCGCUCACCGAGAUCGGAAGAGCACACGU	13 ± 0.6
target 1 insU 3' of 15,insG 3' of 4 (mixed) RNA 1: CACCCGUGCAAAAAUGCAGGGGUCUAAAACUGAGCGGAUAACCUCUCUAUGG RNA 2: GGGAAUGGAUCCACAUCUACGAAUUCGUACCAUAGAGUAGGUUAUCCGCGUCACCGAGAUCGGAAGAGCACACGU	13.5 ± 1.3
target 1 insG 3' of 18,insU 3' of 9 (mixed) RNA 1: CACCCGUGCAAAAAUGCAGGGGUCUAAAACUGAGCGGAUAACCUCUCUAUGG RNA 2: GGGAAUGGAUCCACAUCUACGAAUUCGUACCAUAGGAGAGGUUAUUCCGCUCACCGAGAUCGGAAGAGCACACGU	71 ± 10
target 1 insG 3' of 7,insA 3' of 6 (mixed) RNA 1: CACCCGUGCAAAAAUGCAGGGGUCUAAAACUGAGCGGAUAACCUCUCUAUGG RNA 2: GGGAAUGGAUCCACAUCUACGAAUUCGUACCAUAGAGAGGUUAUCGCAGCUCACCGAGAUCGGAAGAGCACACGU	9 ± 0.6
target 1 C2U,A16C (mixed) RNA 1: CACCCGUGCAAAAAUGCAGGGGUCUAAAACUGAGCGGAUAACCUCUCUAUGG RNA 2: GGGAAUGGAUCCACAUCUACGAAUUCGUACCAUAGCGAGGUUAUCCGCUUACCGAGAUCGGAAGAGCACACGU	56 ± 4
target 1 insA 3' of 15,insG 3' of 7 (mixed) RNA 1: CACCCGUGCAAAAAUGCAGGGGUCUAAAACUGAGCGGAUAACCUCUCUAUGG RNA 2: GGGAAUGGAUCCACAUCUACGAAUUCGUACCAUAGAGAAGGUUAUCGCGCUCACCGAGAUCGGAAGAGCACACGU	6.15 ± 0.19
target 1 C2U,C22A (mixed) RNA 1: CACCCGUGCAAAAAUGCAGGGGUCUAAAACUGAGCGGAUAACCUCUCUAUGG RNA 2: GGGAAUGGAUCCACAUCUACGAAUUCGUAACAUAGAGAGGUUAUCCGCUUACCGAGAUCGGAAGAGCACACGU	16.2 ± 1.2
target 1 insU 3' of 20,insG 3' of 7 (mixed) RNA 1: CACCCGUGCAAAAAUGCAGGGGUCUAAAACUGAGCGGAUAACCUCUCUAUGG RNA 2: GGGAAUGGAUCCACAUCUACGAAUUCGUACCAUUAGAGAGGUUAUCGCGCUCACCGAGAUCGGAAGAGCACACGU	11.8 ± 0.6
target 1 insA 3' of 21,insA 3' of 15 (mixed) RNA 1: CACCCGUGCAAAAAUGCAGGGGUCUAAAACUGAGCGGAUAACCUCUCUAUGG RNA 2: GGGAAUGGAUCCACAUCUACGAAUUCGUACCAAUAGAGAAGGUUAUCCGCUCACCGAGAUCGGAAGAGCACACGU	9.4 ± 0.6
target 1 insC 3' of 20,insC 3' of 14 (mixed) RNA 1: CACCCGUGCAAAAAUGCAGGGGUCUAAAACUGAGCGGAUAACCUCUCUAUGG RNA 2: GGGAAUGGAUCCACAUCUACGAAUUCGUACCACUAGAGACGGUUAUCCGCUCACCGAGAUCGGAAGAGCACACGU	3.1 ± 0.5
target 1 insC 3' of 22,insG 3' of 10 (mixed) RNA 1: CACCCGUGCAAAAAUGCAGGGGUCUAAAACUGAGCGGAUAACCUCUCUAUGG RNA 2: GGGAAUGGAUCCACAUCUACGAAUUCGUACCCAUAGAGAGGUUGAUCCGCUCACCGAGAUCGGAAGAGCACACGU	34.4 ± 2.2
target 1 insC 3' of 16,insC 3' of 13 (mixed) RNA 1: CACCCGUGCAAAAAUGCAGGGGUCUAAAACUGAGCGGAUAACCUCUCUAUGG RNA 2: GGGAAUGGAUCCACAUCUACGAAUUCGUACCAUAGACGAGCGUUAUCCGCUCACCGAGAUCGGAAGAGCACACGU	83 ± 27
